From publication PMC4148193, “Chromatin Insulator Factors Involved in Long-Range DNA Interactions and Their Role in the Folding of the Drosophila Genome” (PLoS Genetics, 2014)

Assays:
Chromator [1] = target: T1, Chromator (Drosophila, UniProt Q86BS3 1-926); experiment: fluorescence anisotropy; Hill n=2±0.2; 20 uM ZnSO4; FA/FCS: 30 mM Tris/HCl pH 7.5, 100 mM NaCl, 20 uM ZnSO4, 5 mM mercaptoethanol, 0.01 mg/ml BSA, 0.004% Tween20, 2.5 nM DNA; EMSA: 150 mM NaCl, 30 mM Tris/HCl pH; conditions: protein: recombinant; tags: N-term 6xHis; blunt
T1 sequence: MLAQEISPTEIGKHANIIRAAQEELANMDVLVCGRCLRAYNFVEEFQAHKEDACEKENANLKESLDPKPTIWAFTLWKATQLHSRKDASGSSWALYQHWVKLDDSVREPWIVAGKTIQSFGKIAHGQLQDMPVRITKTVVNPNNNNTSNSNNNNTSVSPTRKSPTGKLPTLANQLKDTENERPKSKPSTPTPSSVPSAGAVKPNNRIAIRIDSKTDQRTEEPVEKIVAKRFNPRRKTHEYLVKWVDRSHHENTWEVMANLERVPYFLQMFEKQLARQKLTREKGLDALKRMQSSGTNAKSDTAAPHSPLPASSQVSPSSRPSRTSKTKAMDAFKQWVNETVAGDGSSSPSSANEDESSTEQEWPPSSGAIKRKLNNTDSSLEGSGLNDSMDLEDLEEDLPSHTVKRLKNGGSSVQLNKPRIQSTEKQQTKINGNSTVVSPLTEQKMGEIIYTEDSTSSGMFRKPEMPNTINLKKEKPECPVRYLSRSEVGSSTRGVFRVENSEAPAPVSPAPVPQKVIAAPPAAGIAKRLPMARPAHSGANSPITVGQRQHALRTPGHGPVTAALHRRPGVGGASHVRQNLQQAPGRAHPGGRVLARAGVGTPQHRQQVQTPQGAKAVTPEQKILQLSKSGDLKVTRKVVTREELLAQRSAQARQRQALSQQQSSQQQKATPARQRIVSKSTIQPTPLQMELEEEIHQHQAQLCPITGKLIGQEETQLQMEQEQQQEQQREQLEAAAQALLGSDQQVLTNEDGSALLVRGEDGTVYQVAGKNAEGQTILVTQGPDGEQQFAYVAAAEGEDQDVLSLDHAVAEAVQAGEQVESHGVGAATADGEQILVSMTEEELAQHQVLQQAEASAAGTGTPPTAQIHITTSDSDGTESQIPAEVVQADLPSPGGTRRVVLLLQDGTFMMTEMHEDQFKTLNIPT

BEAF32 (BEAF32B) = target: T2, BEAF32 (BEAF32B) (Drosophila, UniProt Q94513 1-282); experiment: competition; unlabeled DNAS vs 2.5 nM Cy3B-DNAS, 100 nM BEAF32; FA/FCS: 30 mM Tris/HCl pH 7.5, 100 mM NaCl, 20 uM ZnSO4, 5 mM mercaptoethanol, 0.01 mg/ml BSA, 0.004% Tween20, 2.5 nM DNA; EMSA: 150 mM NaCl, 30 mM Tris/HCl pH; conditions: protein: recombinant; tags: N-term MBP; C-term 6xHis; blunt
T2 sequence: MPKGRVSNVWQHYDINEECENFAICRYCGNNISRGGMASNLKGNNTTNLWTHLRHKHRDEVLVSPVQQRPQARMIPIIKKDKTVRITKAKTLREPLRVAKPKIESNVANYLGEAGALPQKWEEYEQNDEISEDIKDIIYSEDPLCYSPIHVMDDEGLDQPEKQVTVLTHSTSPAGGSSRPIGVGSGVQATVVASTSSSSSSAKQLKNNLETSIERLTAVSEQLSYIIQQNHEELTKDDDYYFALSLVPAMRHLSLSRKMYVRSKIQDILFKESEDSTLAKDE

Chromator [2] = target: T1, Chromator; experiment: competition; unlabeled DNAS vs 2.5 nM Cy3B-DNAS, 638 nM Chromator; FA/FCS: 30 mM Tris/HCl pH 7.5, 100 mM NaCl, 20 uM ZnSO4, 5 mM mercaptoethanol, 0.01 mg/ml BSA, 0.004% Tween20, 2.5 nM DNA; EMSA: 150 mM NaCl, 30 mM Tris/HCl pH; conditions: protein: recombinant; tags: N-term 6xHis; blunt

B1: DNAS (dsDNA)
DNA 1: AGAAGTCAGCGCGATAGCATCGATATTTTCGTGACACGCTTGTCATCCGATAGGTAGT
DNA 2: ACTACCTATCGGATGACAAGCGTGTCACGAAAATATCGATGCTATCGCGCTGACTTCT
Chromator [1]
  Kd: 360 ± 30 nM
BEAF32 (BEAF32B)
  Ki: 20 ± 4 nM
Chromator [2]
  Ki: 514 ± 360 nM
